The record followed here is the supplement of paper PMC11875167.

The series is described as follows: observed amide hydrogen exchange rate constant kobs (stretched exponential fit, FD-normalized) (s^-1); higher = faster H/D exchange (less protection). The settings on record: pH 3 (pH read); temperature: 20 °C; D2O: 88%. The procedure, abridged: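 Uptake curves were fitted to a stretched single exponential with β = 0.8, and kobs, the observed exchange rate constant, is the fitted rate. The data came from Jurkat tryptic peptides (LysC/trypsin, carbamidomethylated cysteines) labeled in 88% D2O at pHread 3, 20 °C, then quenched with 0.23% formic acid at 13 times from 18 to 93,600 s in processing triplicates. MS1 uptake from a Q-Exactive HF, analyzed in HDExaminer with no back-exchange correction, was normalized to full-deuteration controls (24 h, 37 °C).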
Take LFIGGLNTETNEK: the “observed amide hydrogen exchange rate constant kobs” value turned out to be 0.00144.

As to TLFPLIEAK, the “observed amide hydrogen exchange rate constant kobs” value was 0.000566.

On to EDAANNYAR, for which the “observed amide hydrogen exchange rate constant kobs” value is 0.0026.

For FTQAGSEVSALLGR, the “observed amide hydrogen exchange rate constant kobs” value was 0.00109.

Turning to YTPSGQAGAAASESLFVSNHAY, the “observed amide hydrogen exchange rate constant kobs” value was 0.00149.

Turning to ALPGQLKPFETLLSQNQGGK, the “observed amide hydrogen exchange rate constant kobs” value came out at 0.0011.

Regarding YALYDATYETK, the “observed amide hydrogen exchange rate constant kobs” value was found to be 0.00134.

Turning to LGDVYVNDAFGTAHR, the “observed amide hydrogen exchange rate constant kobs” value stood at 0.00197.

Turning to NFSDNQLQEGK, the “observed amide hydrogen exchange rate constant kobs” value came out at 0.00213.

For the substance HQEGEIFDTEK, the “observed amide hydrogen exchange rate constant kobs” value turned out to be 0.0025.

Consider DVLFLK, for which the “observed amide hydrogen exchange rate constant kobs” value came out at 0.000617.

As to EVSTYIK, the “observed amide hydrogen exchange rate constant kobs” value stood at 0.000877.

Regarding DVIEEYFK, the “observed amide hydrogen exchange rate constant kobs” value was found to be 0.00131.

Take MLVSGAGDIK: the “observed amide hydrogen exchange rate constant kobs” value was 0.00135.

HSQFIGYPITLYLEK: the “observed amide hydrogen exchange rate constant kobs” value was 0.000606.

With APIIAVTR, the “observed amide hydrogen exchange rate constant kobs” value amounted to 0.000401.

For CILQDGR, the “observed amide hydrogen exchange rate constant kobs” value stood at 0.00103.

On to VSHLLGINVTDFTR, for which the “observed amide hydrogen exchange rate constant kobs” value is 0.00119.

As for ALTVPELTQQVFDAK, the “observed amide hydrogen exchange rate constant kobs” value amounted to 0.000761.

Turning to LNGTDPEDVIR, the “observed amide hydrogen exchange rate constant kobs” value was found to be 0.00197.

Take VAASNIVQMK: the “observed amide hydrogen exchange rate constant kobs” value is 0.000933.

As for ENALVQMADGNQAQLAMSHLNGHK, the “observed amide hydrogen exchange rate constant kobs” value is 0.00127.

In the case of VDFNVPMK, the “observed amide hydrogen exchange rate constant kobs” value turned out to be 0.000994.

For GAVDGGLSIPHSTK, the “observed amide hydrogen exchange rate constant kobs” value turned out to be 0.00225.

For DRPFFAGLVK, the “observed amide hydrogen exchange rate constant kobs” value amounted to 0.000655.

Turning to PVHHGVNQLK, the “observed amide hydrogen exchange rate constant kobs” value was found to be 0.00235.

In the case of LLDVVHPAAK, the “observed amide hydrogen exchange rate constant kobs” value worked out at 0.00126.

For the substance HWPFMVVNDAGRPK, the “observed amide hydrogen exchange rate constant kobs” value is 0.00131.

For VMVQPINLIFR, the “observed amide hydrogen exchange rate constant kobs” value stood at 0.000387.

Regarding TFVNITPAEVGVLVGK, the “observed amide hydrogen exchange rate constant kobs” value was found to be 0.000609.

LVQGSILK: the “observed amide hydrogen exchange rate constant kobs” value was found to be 0.000721.

For the substance TVHAGEVGSAEVVK, the “observed amide hydrogen exchange rate constant kobs” value was found to be 0.00152.

For the substance PVGSLAGIGEVLGK, the “observed amide hydrogen exchange rate constant kobs” value turned out to be 0.00115.

On to AIIIFVPVPQLK, for which the “observed amide hydrogen exchange rate constant kobs” value worked out at 0.000266.

With LAVNMVPFPR, the “observed amide hydrogen exchange rate constant kobs” value turned out to be 0.000639.

In the case of LVIITAGAR, the “observed amide hydrogen exchange rate constant kobs” value came out at 0.000717.

Turning to VAVLGASGGIGQPLSLLLK, the “observed amide hydrogen exchange rate constant kobs” value worked out at 0.000683.

Regarding MTDQEAIQDLWQWR, the “observed amide hydrogen exchange rate constant kobs” value is 0.000842.

Consider LEEDISSSMTNSTAASRPPVTLR, for which the “observed amide hydrogen exchange rate constant kobs” value was determined as 0.00131.

AGFAGDDAPR: the “observed amide hydrogen exchange rate constant kobs” value is 0.00357.

NPDDITNEEYGEFYK: the “observed amide hydrogen exchange rate constant kobs” value is 0.00176.

In the case of TVALWDLR, the “observed amide hydrogen exchange rate constant kobs” value worked out at 0.000702.

For VALVYGQMNEPPGAR, the “observed amide hydrogen exchange rate constant kobs” value amounted to 0.00112.

On to DSPSVWAAVPGK, for which the “observed amide hydrogen exchange rate constant kobs” value worked out at 0.000933.

For the substance NLPLPPPPPPR, the “observed amide hydrogen exchange rate constant kobs” value came out at 0.00144.

With LVINGNPITIFQERDPSK, the “observed amide hydrogen exchange rate constant kobs” value was 0.000923.

Consider AHSSMVGVNLPQK, for which the “observed amide hydrogen exchange rate constant kobs” value stood at 0.000759.

Turning to REEEEFNTGPLSVLTQSVK, the “observed amide hydrogen exchange rate constant kobs” value was 0.00112.

Consider LILPHVDIQLK, for which the “observed amide hydrogen exchange rate constant kobs” value turned out to be 0.000852.

LTDCVVMRDPASK: the “observed amide hydrogen exchange rate constant kobs” value turned out to be 0.000824.

For the substance LVQDVANNTNEEAGDGTTTATVLAR, the “observed amide hydrogen exchange rate constant kobs” value was determined as 0.00155.

Turning to RVIISAPSADAPMFVMGVNHEK, the “observed amide hydrogen exchange rate constant kobs” value stood at 0.000994.

On to LTGMAFR, for which the “observed amide hydrogen exchange rate constant kobs” value was 0.00159.

LGEMWNNTAADDKQPYEK: the “observed amide hydrogen exchange rate constant kobs” value is 0.00171.

For the substance GGSDGYGSGR, the “observed amide hydrogen exchange rate constant kobs” value came to 0.00404.

ELISNSSDALDK: the “observed amide hydrogen exchange rate constant kobs” value came out at 0.00235.

With DVNAAIATIK, the “observed amide hydrogen exchange rate constant kobs” value is 0.000675.

As for PLRLPLQDVYK, the “observed amide hydrogen exchange rate constant kobs” value was 0.000685.

Regarding SVTEQGAELSNEER, the “observed amide hydrogen exchange rate constant kobs” value was 0.00228.

For the substance SLEGDLEDLK, the “observed amide hydrogen exchange rate constant kobs” value worked out at 0.00103.

As for GEMMDLQHGSLFLR, the “observed amide hydrogen exchange rate constant kobs” value is 0.00161.

As for GVVPLAGTNGETTTQGLDGLSER, the “observed amide hydrogen exchange rate constant kobs” value is 0.00156.

For the substance LHFFMPGFAPLTSR, the “observed amide hydrogen exchange rate constant kobs” value came out at 0.00112.

Take AGGFLMK: the “observed amide hydrogen exchange rate constant kobs” value came out at 0.00127.

In the case of ISVVSTK, the “observed amide hydrogen exchange rate constant kobs” value was 0.000812.

In the case of YAISMAR, the “observed amide hydrogen exchange rate constant kobs” value was determined as 0.00127.

Turning to VTLATLK, the “observed amide hydrogen exchange rate constant kobs” value stood at 0.000759.

For VVLIGGKPDR, the “observed amide hydrogen exchange rate constant kobs” value is 0.00162.

For the substance LGFAGLVQEISFGTTK, the “observed amide hydrogen exchange rate constant kobs” value was determined as 0.001.

For the substance LAPITSDPTEATAVGAVEASFK, the “observed amide hydrogen exchange rate constant kobs” value amounted to 0.000899.

Turning to ITLPVDFVTADKFDENAK, the “observed amide hydrogen exchange rate constant kobs” value is 0.0013.

With SAEFLLHMLK, the “observed amide hydrogen exchange rate constant kobs” value amounted to 0.00118.

For the substance ESTGAQVQVAGDMLPNSTER, the “observed amide hydrogen exchange rate constant kobs” value amounted to 0.00119.

As to IILDLISESPIK, the “observed amide hydrogen exchange rate constant kobs” value is 0.000711.

Take QSLGELIGTLNAAK: the “observed amide hydrogen exchange rate constant kobs” value came to 0.000915.

With SADTLWDIQK, the “observed amide hydrogen exchange rate constant kobs” value was found to be 0.000935.

Turning to GYSFTTTAER, the “observed amide hydrogen exchange rate constant kobs” value turned out to be 0.00184.

As to TLSDYNIQK, the “observed amide hydrogen exchange rate constant kobs” value amounted to 0.00134.

For GVNLPGAAVDLPAVSEK, the “observed amide hydrogen exchange rate constant kobs” value is 0.0011.

Take RAPFDLFENK: the “observed amide hydrogen exchange rate constant kobs” value turned out to be 0.00167.

As for SESPKEPEQLRK, the “observed amide hydrogen exchange rate constant kobs” value stood at 0.00165.

Turning to NPPGFAFVEFEDPRDAADAVR, the “observed amide hydrogen exchange rate constant kobs” value is 0.00134.

With IVEMSTSK, the “observed amide hydrogen exchange rate constant kobs” value was determined as 0.00206.

In the case of LGGSAVISLEGKPL, the “observed amide hydrogen exchange rate constant kobs” value was 0.000716.

In the case of FVADGIFK, the “observed amide hydrogen exchange rate constant kobs” value was determined as 0.00103.

For FHGTVK, the “observed amide hydrogen exchange rate constant kobs” value came out at 0.00166.

Take AFAMIIDK: the “observed amide hydrogen exchange rate constant kobs” value is 0.000626.

Take AAPEASGTPSSDAVSR: the “observed amide hydrogen exchange rate constant kobs” value is 0.00186.

With AVDDGVNTFK, the “observed amide hydrogen exchange rate constant kobs” value worked out at 0.00173.

For LDGLVETPTGYIESLPR, the “observed amide hydrogen exchange rate constant kobs” value came to 0.000897.

LNEHFLNTTDFLDTIK: the “observed amide hydrogen exchange rate constant kobs” value amounted to 0.00161.

Turning to TLVDIAK, the “observed amide hydrogen exchange rate constant kobs” value is 0.000674.

With EVVEEAENGR, the “observed amide hydrogen exchange rate constant kobs” value came out at 0.00211.

Regarding LAMQEFMILPVGAANFR, the “observed amide hydrogen exchange rate constant kobs” value was 0.000775.

For IEDVTPIPSDSTR, the “observed amide hydrogen exchange rate constant kobs” value turned out to be 0.00154.

For DTGIFLDLMHLK, the “observed amide hydrogen exchange rate constant kobs” value came out at 0.00141.

TLLGDGPVVTDPK: the “observed amide hydrogen exchange rate constant kobs” value was determined as 0.000938.

In the case of ALESPERPFLAILGGAK, the “observed amide hydrogen exchange rate constant kobs” value turned out to be 0.00092.

As for ESKDPADETEAD, the “observed amide hydrogen exchange rate constant kobs” value amounted to 0.00321.

With LVIEEAER, the “observed amide hydrogen exchange rate constant kobs” value was determined as 0.00116.

In the case of RVHPVSTMIK, the “observed amide hydrogen exchange rate constant kobs” value amounted to 0.00129.

ELISNASDALDK: the “observed amide hydrogen exchange rate constant kobs” value turned out to be 0.00184.

Regarding RGILTLK, the “observed amide hydrogen exchange rate constant kobs” value is 0.000691.

NNQITNNQR: the “observed amide hydrogen exchange rate constant kobs” value is 0.00134.

Regarding LGGSLADSYLDEGFLLDK, the “observed amide hydrogen exchange rate constant kobs” value was determined as 0.00175.

With VVSSIEQK, the “observed amide hydrogen exchange rate constant kobs” value was 0.00104.

As to LVQAFQFTDK, the “observed amide hydrogen exchange rate constant kobs” value turned out to be 0.00109.

Turning to VLITTDLLAR, the “observed amide hydrogen exchange rate constant kobs” value stood at 0.000753.

DQIYDIFQK: the “observed amide hydrogen exchange rate constant kobs” value came out at 0.000729.

Turning to SIQFVDWCPTGFK, the “observed amide hydrogen exchange rate constant kobs” value came to 0.00182.

Take LAYINPDLALEEK: the “observed amide hydrogen exchange rate constant kobs” value came out at 0.00137.

As to INISEGNCPER, the “observed amide hydrogen exchange rate constant kobs” value worked out at 0.000833.

In the case of GIVDQSQQAYQEAFEISK, the “observed amide hydrogen exchange rate constant kobs” value is 0.000918.

EGIPALDNFLDKL: the “observed amide hydrogen exchange rate constant kobs” value turned out to be 0.00119.

Turning to YPSPFFVFGEK, the “observed amide hydrogen exchange rate constant kobs” value was determined as 0.000978.

As to HIADLAGNSEVILPVPAFNVINGGSHAGNK, the “observed amide hydrogen exchange rate constant kobs” value is 0.00138.

Take FPGQLNADLRK: the “observed amide hydrogen exchange rate constant kobs” value stood at 0.00145.

Turning to ISVYYNEATGGK, the “observed amide hydrogen exchange rate constant kobs” value amounted to 0.00138.

For EVDEQMLNVQNK, the “observed amide hydrogen exchange rate constant kobs” value turned out to be 0.00132.

Turning to YLAEFATGNDRK, the “observed amide hydrogen exchange rate constant kobs” value was 0.0022.

Take LLGELLQDNAK: the “observed amide hydrogen exchange rate constant kobs” value stood at 0.000855.

As to SDALETLGFLNHYQMK, the “observed amide hydrogen exchange rate constant kobs” value was determined as 0.00133.

In the case of GLSEDTTEETLK, the “observed amide hydrogen exchange rate constant kobs” value was 0.003.

For ILATPPQEDAPSVDIANIR, the “observed amide hydrogen exchange rate constant kobs” value turned out to be 0.00103.

On to QEYDESGPSIVHRK, for which the “observed amide hydrogen exchange rate constant kobs” value worked out at 0.00258.

Consider EFHLNESGDPSSK, for which the “observed amide hydrogen exchange rate constant kobs” value worked out at 0.00132.

With NQGGYGGSSSSSSYGSGR, the “observed amide hydrogen exchange rate constant kobs” value amounted to 0.00275.

In the case of AAGVNVEPFWPGLFAK, the “observed amide hydrogen exchange rate constant kobs” value was determined as 0.000814.

With VELFFK, the “observed amide hydrogen exchange rate constant kobs” value stood at 0.000868.
